Patent US12679878B2, “CRF2 receptor agonists and their use in therapy” (SANOFI, priority 2020, dated 2026)
Starred links: 1 amine or outer side, 2 acyl side, 3 side chain; linkers in the order of their positions; H or OH if unused. Non-standard residues stand in square brackets, D forms with d. Groups on a side chain read outwards from the residue. No end group written: not given here. *: point of attachment. C18 diacid = O=C(O)CCCCCCCCCCCCCCCCC(=O)*; γGlu = O=C(O)[C@H](CCC(=O)[*:2])N[*:1]; Palmitoyl = CCCCCCCCCCCCCCCC(=O)*; AEEA = NCCOCCOCC(=O)O; Aib = CC(C)(N)C(=O)O

T1: CRF1R receptor (anti-target) (UniProt P34998 24-415, limits assumed)
T1 sequence (looked up): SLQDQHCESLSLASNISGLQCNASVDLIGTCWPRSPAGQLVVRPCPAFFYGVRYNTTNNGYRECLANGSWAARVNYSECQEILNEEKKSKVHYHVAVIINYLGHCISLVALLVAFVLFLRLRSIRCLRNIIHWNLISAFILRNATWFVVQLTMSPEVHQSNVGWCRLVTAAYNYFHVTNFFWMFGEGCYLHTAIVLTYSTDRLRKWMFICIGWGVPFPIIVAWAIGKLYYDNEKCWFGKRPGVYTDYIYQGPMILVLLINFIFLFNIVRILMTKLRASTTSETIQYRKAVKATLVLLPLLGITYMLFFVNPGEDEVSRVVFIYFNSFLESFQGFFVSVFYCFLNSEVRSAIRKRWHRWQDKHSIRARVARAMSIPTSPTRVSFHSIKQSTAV


Biological target: T1, CRF1R receptor (anti-target)
Test: cell-based or functional assay

Row | Binder | EC50 [nM] 0% HSA (cAMP, HTRF) [nM] | Emax (%) (100% = Sauvagine at 100 nM)
1 | IVLSLD[dV]PTKLK([γGlu-Palmitoyl])KKLLKQERKRKEREQAEKAARILERV-NH2 (N-terminus assumed; SMILES CCCCCCCCCCCCCCCC(=O)N[C@@H](CCC(=O)NCCCC[C@H](NC(=O)[C@H](CC(C)C)NC(=O)[C@H](CCCCN)NC(=O)[C@@H](NC(=O)[C@@H]1CCCN1C(=O)[C@H](NC(=O)[C@H](CC(=O)O)NC(=O)[C@H](CC(C)C)NC(=O)[C@H](CO)NC(=O)[C@H](CC(C)C)NC(=O)[C@@H](NC(=O)[C@@H](N)[C@@H](C)CC)C(C)C)C(C)C)[C@@H](C)O)C(=O)N[C@@H](CCCCN)C(=O)N[C@@H](CCCCN)C(=O)N[C@@H](CC(C)C)C(=O)N[C@@H](CC(C)C)C(=O)N[C@@H](CCCCN)C(=O)N[C@@H](CCC(N)=O)C(=O)N[C@@H](CCC(=O)O)C(=O)N[C@@H](CCCNC(=N)N)C(=O)N[C@@H](CCCCN)C(=O)N[C@@H](CCCNC(=N)N)C(=O)N[C@@H](CCCCN)C(=O)N[C@@H](CCC(=O)O)C(=O)N[C@@H](CCCNC(=N)N)C(=O)N[C@@H](CCC(=O)O)C(=O)N[C@@H](CCC(N)=O)C(=O)N[C@@H](C)C(=O)N[C@@H](CCC(=O)O)C(=O)N[C@@H](CCCCN)C(=O)N[C@@H](C)C(=O)N[C@@H](C)C(=O)N[C@@H](CCCNC(=N)N)C(=O)N[C@H](C(=O)N[C@@H](CC(C)C)C(=O)N[C@@H](CCC(=O)O)C(=O)N[C@@H](CCCNC(=N)N)C(=O)N[C@H](C(N)=O)C(C)C)[C@@H](C)CC)C(=O)O) [peptide of SEQ ID NO: 30] | > 100 | 14.5
2 | IVLSLDVPIKLK([AEEA-AEEA-γGlu-C18 diacid])QILLKQERQKKQREKAKTN[Aib]QILAQV-NH2 (N-terminus assumed; SMILES CC[C@H](C)[C@H](N)C(=O)N[C@H](C(=O)N[C@@H](CC(C)C)C(=O)N[C@@H](CO)C(=O)N[C@@H](CC(C)C)C(=O)N[C@@H](CC(=O)O)C(=O)N[C@H](C(=O)N1CCC[C@H]1C(=O)N[C@H](C(=O)N[C@@H](CCCCN)C(=O)N[C@@H](CC(C)C)C(=O)N[C@@H](CCCCNC(=O)COCCOCCNC(=O)COCCOCCNC(=O)CC[C@H](NC(=O)CCCCCCCCCCCCCCCCC(=O)O)C(=O)O)C(=O)N[C@@H](CCC(N)=O)C(=O)N[C@H](C(=O)N[C@@H](CC(C)C)C(=O)N[C@@H](CC(C)C)C(=O)N[C@@H](CCCCN)C(=O)N[C@@H](CCC(N)=O)C(=O)N[C@@H](CCC(=O)O)C(=O)N[C@@H](CCCNC(=N)N)C(=O)N[C@@H](CCC(N)=O)C(=O)N[C@@H](CCCCN)C(=O)N[C@@H](CCCCN)C(=O)N[C@@H](CCC(N)=O)C(=O)N[C@@H](CCCNC(=N)N)C(=O)N[C@@H](CCC(=O)O)C(=O)N[C@@H](CCCCN)C(=O)N[C@@H](C)C(=O)N[C@@H](CCCCN)C(=O)N[C@H](C(=O)N[C@@H](CC(N)=O)C(=O)NC(C)(C)C(=O)N[C@@H](CCC(N)=O)C(=O)N[C@H](C(=O)N[C@@H](CC(C)C)C(=O)N[C@@H](C)C(=O)N[C@@H](CCC(N)=O)C(=O)N[C@H](C(N)=O)C(C)C)[C@@H](C)CC)[C@@H](C)O)[C@@H](C)CC)[C@@H](C)CC)C(C)C)C(C)C) [peptide of SEQ ID NO: 88] | > 100 | 2.3
